Drawing on patent US5973118, this text covers specific activity (U/mg), inhibition of trypsin with BAPA as substrate, Binding capacity MU/ml and fold higher binding capacity than seed-ETI-Sepharose for three substances.

Assay [1] addresses recombinant plasminogen activator rPA (recombinant tPA derivative comprising the kringle 2 and protease domains) (Homo sapiens (Human)) (UniProt P00750). As to the kind of experiment: affinity column: inhibitor coupled to CNBr-Sepharose, loaded with 2 MU r-PA/ml gel, eluted rPA by S2288 amidolytic activity, run 4.
Assay [2] shares this target. As to the kind of experiment: affinity column: inhibitor coupled to CNBr-Sepharose, loaded with 2 MU r-PA/ml gel, eluted rPA by S2288 amidolytic activity, run 2.
For assay [3] the target is unchanged. Put plainly: affinity column: inhibitor coupled to CNBr-Sepharose, loaded with 2 MU r-PA/ml gel, eluted rPA by S2288 amidolytic activity, run 3.
Assay [4] shares this target. Put plainly: affinity column: inhibitor coupled to CNBr-Sepharose, loaded with 2 MU r-PA/ml gel, eluted rPA by S2288 amidolytic activity, run 1.
Assay [5] shares this target. Put plainly: affinity column: inhibitor coupled to CNBr-Sepharose, loaded with 2 MU r-PA/ml gel, eluted rPA by S2288 amidolytic activity, run 5.
The target is the same in assay [6]. As to the kind of experiment: affinity column: inhibitor coupled to CNBr-Sepharose, eluted rPA; reference seed-ETI-Sepharose.

“recombinant, non-modified ETI (recETI) (from UniProt P09943)” registered a specific activity (U/mg), inhibition of trypsin with BAPA as substrate in the assay with trypsin of 1.07 U/mg.

For the substance “SerETI (recombinant ETI polypeptide in which the N-terminal Val is replaced by Ser)”, the Binding capacity MU/ml in assay [1] turned out to be 1.48 MU/ml; in assay [2] it was 1.35 MU/ml; in assay [3], 1.53 MU/ml; in assay [4], 1.28 MU/ml; in assay [5], 1.49 MU/ml. Further, the specific activity (U/mg), inhibition of trypsin with BAPA as substrate in the assay with trypsin was determined as 1.5 U/mg. Moreover, the fold higher binding capacity than seed-ETI-Sepharose in assay [6] came out at 1.5 fold.

Take “ETI isolated from the seeds of Erythrina caffra [ETI (seeds)] (from UniProt P09943)”: the Binding capacity MU/ml was 1.01 MU/ml in assay [1]; 0.95 MU/ml in assay [2]; 1.08 MU/ml in assay [3]; 1.04 MU/ml in assay [4]; 0.98 MU/ml in assay [5]. For the same substance, the specific activity (U/mg), inhibition of trypsin with BAPA as substrate with trypsin was determined as 0.88 U/mg.
